Source: article PMC4255369 (2014)

Assays:
Test in all cases: SPR
[1] = molecular target: human tau protein isoform 2N4R (human, UniProt P10636-8 1-441)
[2] = molecular target: mis-disordered tau 151-391/3R (human, UniProt P10636-5 151-391)
[3] = molecular target: human tau protein isoform 2N3R (human, UniProt P10636-5 1-410)
[4] = molecular target: mis-disordered tau protein 151-391/4R (human, UniProt P10636-8 151-391)
mis-disordered tau protein 151-391/4R, sequence (P10636 468-708): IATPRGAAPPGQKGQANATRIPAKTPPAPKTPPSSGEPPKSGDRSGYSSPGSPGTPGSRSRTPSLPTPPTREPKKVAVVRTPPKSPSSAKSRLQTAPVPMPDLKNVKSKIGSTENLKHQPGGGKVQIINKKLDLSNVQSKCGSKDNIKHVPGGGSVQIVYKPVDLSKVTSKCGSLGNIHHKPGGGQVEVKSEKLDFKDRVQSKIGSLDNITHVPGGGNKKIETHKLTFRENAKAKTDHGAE

human tau protein isoform 2N3R, sequence (P10636 other isoform, or with tags, fused parts or gaps): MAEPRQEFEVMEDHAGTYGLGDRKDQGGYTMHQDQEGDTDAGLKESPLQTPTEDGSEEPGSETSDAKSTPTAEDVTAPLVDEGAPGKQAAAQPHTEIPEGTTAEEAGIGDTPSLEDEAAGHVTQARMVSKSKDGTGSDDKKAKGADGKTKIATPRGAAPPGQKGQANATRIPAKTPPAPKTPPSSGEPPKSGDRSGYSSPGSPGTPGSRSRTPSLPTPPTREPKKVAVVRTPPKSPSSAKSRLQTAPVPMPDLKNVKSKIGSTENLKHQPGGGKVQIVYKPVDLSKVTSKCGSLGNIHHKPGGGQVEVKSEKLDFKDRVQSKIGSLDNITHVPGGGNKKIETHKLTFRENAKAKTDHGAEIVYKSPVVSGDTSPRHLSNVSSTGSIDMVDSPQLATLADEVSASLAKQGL
mis-disordered tau 151-391/3R, sequence (P10636 other isoform, or with tags, fused parts or gaps): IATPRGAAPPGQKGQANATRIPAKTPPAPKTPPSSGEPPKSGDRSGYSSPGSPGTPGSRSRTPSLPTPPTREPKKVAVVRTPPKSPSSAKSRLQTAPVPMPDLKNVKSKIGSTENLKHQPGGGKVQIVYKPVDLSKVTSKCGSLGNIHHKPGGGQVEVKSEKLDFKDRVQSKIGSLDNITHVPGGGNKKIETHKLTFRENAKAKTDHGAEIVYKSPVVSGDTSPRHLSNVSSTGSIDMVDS
human tau protein isoform 2N4R, sequence (P10636 other isoform, or with tags, fused parts or gaps): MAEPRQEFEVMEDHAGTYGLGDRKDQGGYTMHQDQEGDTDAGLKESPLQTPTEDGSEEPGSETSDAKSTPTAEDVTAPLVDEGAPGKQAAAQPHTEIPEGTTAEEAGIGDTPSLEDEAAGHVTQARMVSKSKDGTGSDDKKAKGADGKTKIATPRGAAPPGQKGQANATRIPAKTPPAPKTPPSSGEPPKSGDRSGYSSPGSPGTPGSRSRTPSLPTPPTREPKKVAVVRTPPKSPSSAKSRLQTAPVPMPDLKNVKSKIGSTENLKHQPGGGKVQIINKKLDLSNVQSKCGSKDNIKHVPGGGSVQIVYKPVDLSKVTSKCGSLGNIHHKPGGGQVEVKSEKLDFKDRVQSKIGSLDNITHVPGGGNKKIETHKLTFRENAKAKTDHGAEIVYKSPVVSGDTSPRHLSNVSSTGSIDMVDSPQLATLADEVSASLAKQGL

Ka [1]: 1.1e+07 M⁻¹
Ka [2]: 1.9e+06 M⁻¹
Ka [3]: 80000 M⁻¹
Ka [4]: 7.3e+07 M⁻¹
B1: monoclonal antibody DC8E8 (antibody, V domains shown)
VH: QVQLQQSGPELVKPGTSVKMPCKASGYIFTDYVISWVKQRTGQGLEWIGEIFPRSGSTYYNEKFKGKATLTADKSSNTAYMQLSSVTSEDSAVYFCARDYYGTSFAMDYWGQGTSVTVSS
VL: DIVMSQSPSSLAVSAGEKVTMSCKSSQSLLNSRTRKNYLAWYQQKPGQSPKLLIYWASTRESGVPDRFTGSGSGTDFTLTISSVQAEDLAVYYCKQSFYLRTFGGGTKLDIK
